Assay results: patent publication US20110245167A1 (UNIVERSITY OF TOLEDO, published 2011)

Molecular target: Recombinant human Src expressed in Sf9 insect cells (purified recombinant full-length Src from Upstate … (human, UniProt P12931 2-536))
Experiment: cell-based or functional assay

B1: pNaKtide (HIV-Tat-NaKtide) (peptide)
peptide: not shown
Question: How did the “IC50 of Src inhibition (in vitro kinase assay)” value turn out when B1 was run?
Answer: ~5 nM
